The values below come from patent US20140134657.

Data set [1] deals with T1, PvSUB1 peptide substrate KLVGADDVSLA, tagged with fluorophore and quencher.
T1 chain: KLVGADDVSLA

Data set [2] has as its target T2, PfSUB1 peptide substrate KLVSADNIDIS, tagged with fluorophore and quencher.
T2 chain: KLVSADNIDIS

B1: recombinant enzymatically active form of Plasmodium vivax SUB1-Belem (PvSUB1-Belem), following auto-maturation at the KLVGAD//DVSLA site (protein)
chain: DVSLASVKDAVRRGESSVNWGKLRSTMLEVPSGESPPSHAASSGSPFDDDDDLLSEAALHREEAHLAGSKTTKGYKFNDEYRNLQWGLDLARLDETQDLINANRVSVTKICVIDSGIDYNHPDLRNNIDVNVKELHGRKGVDDDSNGVVDDVYGANFVNNSGDPMDDNYHGTHVSGIISAVGNNGIGIVGVDGHSKLVICKALDQHKLGRLGDMFKCIDYCISRQAHMINGSFSFDEYSNIFNASVEHLRSLGILFFVSASNCAHDKLSKPDIAKCDLAVNHRYPPILSKTHNNVIAVANLKRDLDESYSLSVNSFYSNIYCQLAAPGTNIYSTTPMNNYRKLNGTSMASPHVAAIASIVRSINPNLTYLQIVEILRNAIVKLPSLTERVSWGGYVDILRAVNLAIDSKAAPYIKSHSWFRWKQGSRRHHHHHH
Turning to B1, in data set [1], the “apparent Km” value is listed as 19.7 µM±1.7.

B2: recombinant Plasmodium falciparum SUB1 (PfSUB1) (protein)
chain: MLLVNQSHQGFNKEHTSKMVSAIVLYVLLAAAAHSAFAADLGSKEVRSEENGKIQDDAKKIVSELRFLEKVEDVIEKSNIGGNEVDADENSFNPDTEVPIEEIEEIKMRELKDVKEEKNKNDNHNNNNNNISSSSSSSSNTFGEEKEEVSKKKKKLRLIVSENHATTPSFFQESLLEPDVLSFLESKGNLSNLKNINSMIIELKEDTTDDELISYIKILEEKGALIESDKLVSADNIDISGIKDAIRRGEENIDVNDYKSMLEVENDAEDYDKMFGMFNESHAATSKRKRHSTNERGYDTFSSPSYKTYSKSDYLYDDDNNNNNYYYSHSSNGHNSSSRNSSSSRSRPGKYHFNDEFRNLQWGLDLSRLDETQELINEHQVMSTRICVIDSGIDYNHPDLKDNIELNLKELHGRKGFDDDNNGIVDDIYGANFVNNSGNPMDDNYHGTHVSGIISAIGNNNIGVVGVDVNSKLIICKALDEHKLGRLGDMFKCLDYCISRNAHMINGSFSFDEYSGIFNSSVEYLQRKGILFFVSASNCSHPKSSTPDIRKCDLSINAKYPPILSTVYDNVISVANLKKNDNNNHYSLSINSFYSNKYCQLAAPGTNIYSTAPHNSYRKLNGTSMAAPHVAAIASLIFSINPDLSYKKVIQILKDSIVYLPSLKNMVAWAGYADINKAVNLAIKSKKTYINSNISNKWKKKSRYLHHHHHH
As to B2, the “apparent Km” value in data set [2] is given as 30.2 µM±3.4.
